The record followed here is paper PMC11793827 (2025).

This experiment addresses WT SARS-CoV-2 RBD (SARS-CoV-2, UniProt P0DTC2 14-1211). Put plainly: ELISA. Background: An ELISA detects its analyte on a solid surface through an enzyme-linked reagent.

B1: AP1D4 (Fc fusion)
chain: EVQLQASGGGFVQPGGSLRLSCAASGHTFDAHRMGWFRQAPGKEREFVSAISSWGQSSTYYADSVKGRFTISRDNSKNTVYLQMNSLRAEDTATYYCAQTDEGNQYVYWGQGTQVTVSS
Broadly, the Kd is the equilibrium constant for the complex coming apart. A high value points to weaker binding. For B1, binding was characterised by a dissociation constant (Kd) of 0.97 nM.

B2: AP1C3 (VHH)
VHH: EVQLQASGGGFVQPGGSLRLSCAASGRTYRGYSMGWFRQAPGKEREFVSAISSWSDDWTAYADSVKGRFTISRDNSKNTVYLQMNSLRAEDTATYYCAWQYIDEIQYYWGQGTQVTVSS
Turning to B2, binding was characterised by a dissociation constant (Kd) of 0.08 nM.

B3: BP2A6 (VHH)
VHH: EVQLQASGGGFVQPGGSLRLSCAASGQTFSHYIMGWFRQAPGKEREFVSAISAGQGHATYYADSVKGRFTISRDNSKNTVYLQMNSLRAEDTATYYCAKYQDTIAPLYWGQGTQVTVSS
Regarding B3, binding was put at a Kd of 0.06 nM.

B4: DP4F2 (VHH)
VHH: EVQLQASGGGFVQPGGSLRLSCAASGTTYSERVMGWFRQAPGKEREFVSAISSGQSDQTYYADSVKGRFTISRDNSKNTVYLQMNSLRAEDTATYYCAPFAGDANLPREWYWGQGTQVTVSS
The molecule B4 yielded a Kd of 10.7 nM.

B5: AP1A5 (Fc fusion)
chain: EVQLQASGGGFVQPGGSLRLSCAASGSTASHYTMGWFRQAPGKEREFVSAISSGRDHAKQYADSVKGRFTISRDNSKNTVYLQMNSLRAEDTATYYCAYEEINATQKDTLYWGQGTQVTVSS
Regarding B5, binding was put at a Kd of 1.19 nM. Compared with the last molecule, the Kd is about 9-fold lower.
